According to patent publication US20210292396A1:

Columns and labels:
Experiment in all cases: cell-based or functional assay
[1] = target: Env of HIV isolate CH119.10 (clade BC) (HIV)
[2] = target: HIV Env of isolate BJOX009000.02.4 (HIV)
[3] = target: Env of HIV isolate CNE40 (clade BC) (HIV)
[4] = target: Env of HIV isolate KNH1209.18 (clade A) (HIV)
[5] = target: HIV Env of isolate KER2008.12 (HIV)
[6] = target: HIV Env of isolate QH0692.42 (HIV)
[7] = target: HIV Env of isolate ZM214.15 (HIV)
[8] = target: HIV Env of isolate 3817.v2.c59 (HIV)
[9] = target: Env of HIV isolate Bal.01 (clade B) (HIV)
[10] = target: Env of HIV isolate AC10.29 (clade B) (HIV)
[11] = target: HIV Env of isolate WITO.33 (HIV)
[12] = target: HIV Env of isolate BaL.26 (HIV)
[13] = target: HIV Env of isolate 398-F1.F6.20 (HIV)
[14] = target: HIV Env of isolate X2278.C2.B6 (HIV)
[15] = target: Env of HIV isolate BB539.2B13 (clade A) (HIV)
[16] = target: Env of HIV isolate 269-12 (clade AG) (HIV)
[17] = target: Env of HIV isolate TZBD.02 (clade C) (HIV)
[18] = target: HIV Env of isolate Q769.h5 (HIV)
[19] = target: Env of HIV isolate 3326.v4.c3 (clade CD) (HIV)
[20] = target: Env of HIV isolate X1193.c1 (clade G) (HIV)
[21] = target: Env of HIV isolate 191821.E6.1 (clade D) (HIV)
[22] = target: Env of HIV isolate 6540.v4.c1 (clade AC) (HIV)
[23] = target: Env of HIV isolate 16055-2.3 (clade C) (HIV)
[24] = target: Env of HIV isolate BJOX025000.01.1 (clade AE) (HIV)
[25] = target: HIV Env of isolate P0402.c2.11 (HIV)
[26] = target: HIV Env of isolate DU156.12 (HIV)
[27] = target: Env of HIV isolate 0077.v1.c16 (clade C) (HIV)
[28] = target: HIV Env of isolate X1632.S2.B10 (HIV)
[29] = target: HIV Env of isolate CH181.12 (HIV)
[30] = target: Env of HIV isolate CAAN.A2 (clade B) (HIV)
[31] = target: Env of HIV isolate X1254.c3 (clade G) (HIV)
[32] = target: Env of HIV isolate 3873.v1.c24 (clade C) (HIV)
[33] = target: Env of HIV isolate 5768.04 (clade B) (HIV)
[34] = target: Env of HIV isolate BJOX002000.03.2 (clade BC) (HIV)
[35] = target: Env of HIV isolate DU172.17 (clade C) (HIV)
[36] = target: HIV Env of isolate 247-23 (HIV)
[37] = target: Env of HIV isolate 231965.c01 (clade D) (HIV)
[38] = target: HIV Env of isolate CAAN.A2 (HIV)
[39] = target: HIV Env of isolate Q23.17 (HIV)

Substance: PGT121 (antibody)
- IC50, pseudovirus neutralization [1]: 0.0313 µg/mL
- IC80 [2]: 9.02 µg/mL
- IC50, pseudovirus neutralization [3]: 0.281 µg/mL
- IC50, pseudovirus neutralization [4]: 0.0117 µg/mL
- IC80 [5]: 6.55 µg/mL
- IC80 [6]: 5.8 µg/mL
- IC80, pseudovirus neutralization [7]: 1.57 µg/mL
- IC80, pseudovirus neutralization [8]: > 50 µg/mL
- IC50, pseudovirus neutralization [9]: 0.0113 µg/mL
- IC50, pseudovirus neutralization [10]: 0.067 µg/mL
- IC80 [11]: 2.02 µg/mL
- IC80 [12]: 0.06 µg/mL
- IC80 [13]: 0.0527 µg/mL
- IC80 [14]: 0.072 µg/mL
- IC50, pseudovirus neutralization [15]: > 50 µg/mL
- IC50, pseudovirus neutralization [16]: 0.128 µg/mL
- IC50, pseudovirus neutralization [17]: 0.0257 µg/mL
- IC80 [18]: > 50 µg/mL
- IC50, pseudovirus neutralization [19]: > 50 µg/mL
- IC50, pseudovirus neutralization [20]: 0.0457 µg/mL
- IC50, pseudovirus neutralization [21]: > 50 µg/mL
- IC50, pseudovirus neutralization [22]: > 50 µg/mL
- IC50, pseudovirus neutralization [23]: 0.312 µg/mL
- IC50, pseudovirus neutralization [24]: > 50 µg/mL
- IC80, pseudovirus neutralization [25]: 0.0297 µg/mL
- IC80, pseudovirus neutralization [26]: 0.0367 µg/mL
- IC50, pseudovirus neutralization [27]: > 50 µg/mL
- IC80, pseudovirus neutralization [28]: > 50 µg/mL
- IC80, pseudovirus neutralization [29]: 0.083 µg/mL
- IC50, pseudovirus neutralization [30]: 0.0193 µg/mL
- IC50, pseudovirus neutralization [31]: 0.0347 µg/mL
- IC50, pseudovirus neutralization [32]: 0.045 µg/mL
- IC50, pseudovirus neutralization [33]: 0.118 µg/mL
- IC50, pseudovirus neutralization [34]: 0.026 µg/mL
- IC50, pseudovirus neutralization [35]: 0.065 µg/mL
- IC80, pseudovirus neutralization [36]: > 50 µg/mL
- IC50, pseudovirus neutralization [37]: > 50 µg/mL
- IC80 [38]: 0.0503 µg/mL
- IC80 [39]: 0.0267 µg/mL
